1 protein from ChEMBL document CHEMBL1122375, “Synthesis and biological evaluation of 2-fluoro-8-azaadenosine and related compounds” (J Med Chem, 1983) can be followed below.

Substrate in data set [1]: Nc1nc(N)c2ncn([C@@H]3O[C@H](CO)[C@@H](O)[C@H]3O)c2n1
The data set is described as follows: (§1) Kinetic parameter in calf intestine adenosine deaminase.

Substrate in data set [2]: Nc1ncnc2c1nnn2[C@@H]1O[C@H](CO)[C@@H](O)[C@H]1O
Described as §1.

Substrate in data set [3]: COC[C@H]1O[C@@H](n2cnc3c(O)nc(N)nc32)[C@H](OC)[C@@H]1OC
The description is as §1.

Substrate in data set [4]: COC[C@H]1O[C@@H](n2nnc3c(O)nc(N)nc32)[C@H](OC)[C@@H]1OC
The data set is described as §1.

Substrate in data set [5]: COc1ncnc2c1ncn2[C@@H]1O[C@H](CO)[C@@H](O)[C@@H]1O
Described as §1.

Substrate in data set [6]: Nc1nc(F)nc2c1ncn2[C@@H]1O[C@H](CO)[C@@H](O)[C@H]1O
The data set is described as §1.

Substrate in data set [7]: COc1ncnc2c1nnn2[C@@H]1O[C@H](CO)[C@@H](O)[C@H]1O
The description is as §1.

Substrate in data set [8]: Nc1nc(F)nc2c1nnn2C1O[C@H](CO)[C@@H](O)[C@H]1O
The data set is described as §1.

Substrate in data set [9]: Nc1ncnc2c1nnn2[C@H]1C[C@H](O)[C@@H](CO)O1
The data set is described as §1.

Usually Km stands for the concentration of substrate that gives half-maximal velocity.

B1: Adenosine deaminase (Bos taurus), P56658 (protein)
chain: MAQTPAFNKPKVELHVHLDGAIKPETILYYGRKRGIALPADTPEELQNIIGMDKPLSLPEFLAKFDYYMPAIAGCREAVKRIAYEFVEMKAKDGVVYVEVRYSPHLLANSKVEPIPWNQAEGDLTPDEVVSLVNQGLQEGERDFGVKVRSILCCMRHQPSWSSEVVELCKKYREQTVVAIDLAGDETIEGSSLFPGHVKAYAEAVKSGVHRTVHAGEVGSANVVKEAVDTLKTERLGHGYHTLEDATLYNRLRQENMHFEVCPWSSYLTGAWKPDTEHPVVRFKNDQVNYSLNTDDPLIFKSTLDTDYQMTKNEMGFTEEEFKRLNINAAKSSFLPEDEKKELLDLLYKAYGMPSPASAEQCL
Consider B1, for which the Km worked out at 33 µM in [1]; 250 µM in [2]; 42 µM in data set [3]; 22 µM in [4]; 50 µM in data set [5]; 81 µM in [6]. For the same protein, the Km in data set [7] was found to be 140 µM; in [8], 250 µM; in data set [9], 220 µM.
